Drawing on publication PMC5432123, this text covers in vitro MT gliding assay, speed of MT gliding (n = 25) for two molecules.

The target in this assay is microtubules (tubulin).

Positions count from the first letter of the chain named. Names and notes keep the numbering of the source.

B1: UNC-104 (1-371 a.a), truncated version (domain or fragment)
chain: MSSVKVAVRVRPFNQREISNTSKCVLQVNGNTTTINGHSINKENFSFNFDHSYWSFARNDPHFITQKQVYEELGVEMLEHAFEGYNVCIFAYGQTGSGKSYTMMGKANDPDEMGIIPRLCNDLFARIDNNNDKDVQYSVEVSYMEIYCERVKDLLNPNSGGNLRVREHPLLGPYVDDLTKMAVCSYHDICNLMDEGNKARTVAATNMNSTSSRSHAVFTIVLTQKRHCADSNLDTEKHSKISLVDLAGSERANSTGAEGQRLKEGANINKSLTTLGLVISKLAEESTKKKKSNKGVIPYRDSVLTWLLRENLGGNSKTAMLAALSPADINFDETLSTLRYADRAKQIVCQAVVNEDPNAKLIRELNEEVIK
B1 returned an in vitro MT gliding assay, speed of MT gliding (n = 25) of 1.68 mμ/sec.

B2: UNC-104 (1-371 a.a) V6I, truncated version (domain or fragment)
chain: B1 chain with V6I
B2 showed an in vitro MT gliding assay, speed of MT gliding (n = 25) of 1.35 μm/sec.
